Experimental data: the Human Domainome abundance scans (Beltran et al. 2025)
± gives the uncertainty stated by the source.

B1: POU domain, class 3, transcription factor 3, residues 320 to 388; numbered along this chain, P20264 (parent)
chain: DDLEQFAKQFKQRRIKLGFTQADVGLALGTLYGNVFSQTTICRFEALQLSFKNMCKLKPLLNKWLEEAD

Variants of: B1
Experiment: abundance fitness (aPCA) (normalised: wild type 0, dead -1); higher = more abundant; growth selection in yeast, the domain comes from the species named
Details: Homo sapiens

Abundance fitness of substitutions, site by site:
A22: T -0.162 ± 0.27 | K 0.103 ± 0.1 | I -0.392 ± 0.39 | S -0.243 ± 0.085 | G -0.25 ± 0.13 | V -0.513 ± 0.1 | E -0.17 ± 0.15 | P -0.849 ± 0.44 | L -0.49 ± 0.12 | H 0.228 ± 0.34 | F -0.293 ± 0.21 | W -0.83 ± 0.26 | R -0.163 ± 0.082 | Q 0.036 ± 0.2
V24: D -0.882 ± 0.44 | N -0.74 ± 0.33 | K -0.899 ± 0.25 | F 0.197 ± 0.23 | C -0.531 ± 0.41 | P -0.673 ± 0.29 | A -0.677 ± 0.22 | I -0.766 ± 0.37 | R -0.788 ± 0.12 | L -0.679 ± 0.18 | W -1.05 ± 0.35 | S -0.941 ± 0.31
Q21: M -0.489 ± 0.25 | I 0.145 ± 0.28 | P -0.23 ± 0.15 | H -0.08 ± 0.11 | W -0.284 ± 0.14 | E -0.061 ± 0.12 | G -0.629 ± 0.22 | V -0.017 ± 0.11 | S -0.242 ± 0.16 | A -0.281 ± 0.12 | K -0.298 ± 0.18 | Y -0.147 ± 0.42 | R -0.184 ± 0.065 | L -0.271 ± 0.14 | T -0.507 ± 0.35 | C -0.278 ± 0.39
F19: R -0.466 ± 0.19 | S -0.848 ± 0.3 | A -0.243 ± 0.12 | V -0.236 ± 0.11 | I 0.119 ± 0.18 | W -0.408 ± 0.2 | E -0.495 ± 0.43 | K -0.426 ± 0.19 | L -0.202 ± 0.1 | G -1.03 ± 0.38 | P -0.625 ± 0.3
F36: Y -0.04 ± 0.14 | W -0.714 ± 0.23 | Q -0.214 ± 0.17 | M 0.021 ± 0.13 | K -0.364 ± 0.2 | P -0.043 ± 0.2 | R 0.368 ± 0.17 | A -0.068 ± 0.16 | C 0.219 ± 0.22 | T 0.071 ± 0.11 | V 0.017 ± 0.073 | E -0.121 ± 0.2 | L -0.07 ± 0.078 | H -0.216 ± 0.19
D23: P -1.04 ± 0.42 | S -0.743 ± 0.17 | F -0.998 ± 0.49 | R -0.187 ± 0.075 | Y -0.778 ± 0.38 | I -0.704 ± 0.46 | M -0.802 ± 0.26 | E -0.023 ± 0.049 | G -0.185 ± 0.06 | Q 0.039 ± 0.13 | K -0.764 ± 0.24 | V -0.937 ± 0.17 | N -0.687 ± 0.48
N34: G 0.074 ± 0.066 | W -0.84 ± 0.23 | M -0.22 ± 0.13 | V -0.21 ± 0.078 | F -0.569 ± 0.2 | R -0.051 ± 0.072 | Q -0.172 ± 0.14 | L -0.468 ± 0.14 | C 0.307 ± 0.11 | E 0.136 ± 0.12 | S 0.109 ± 0.066 | A -0.036 ± 0.073 | I -0.235 ± 0.16 | D -0.085 ± 0.26 | T -0.098 ± 0.17 | Y -0.295 ± 0.044 | H -0.094 ± 0.091 | K 0.081 ± 0.13
G18: N -0.029 ± 0.13 | K -0.546 ± 0.22 | L -0.935 ± 0.31 | R -0.532 ± 0.12 | M -0.778 ± 0.18 | W -1.06 ± 0.43 | Q -0.785 ± 0.32 | A -0.542 ± 0.2 | V -0.851 ± 0.19 | S -0.906 ± 0.21 | H -0.749 ± 0.23 | E -0.893 ± 0.44 | P -0.964 ± 0.28
G33: Y -0.523 ± 0.31 | P -0.204 ± 0.19 | M -0.792 ± 0.23 | I -0.7 ± 0.33 | F -0.766 ± 0.38 | W -0.722 ± 0.46 | A -0.382 ± 0.096 | H -0.753 ± 0.45 | Q -0.263 ± 0.44 | D -0.545 ± 0.16 | L -0.922 ± 0.19 | S -0.885 ± 0.36 | V -1.09 ± 0.23
G25: C 0.103 ± 0.26 | Q -0.682 ± 0.14 | A 0.161 ± 0.12 | T -0.36 ± 0.14 | V -0.815 ± 0.19 | N -0.753 ± 0.45 | M -0.754 ± 0.21 | R -0.3 ± 0.068 | S -0.069 ± 0.099
Y32: D -0.352 ± 0.18 | S 0.108 ± 0.053 | T -0.526 ± 0.19 | R -0.44 ± 0.14 | E -0.335 ± 0.25 | V -0.557 ± 0.15 | H -0.099 ± 0.1 | L 0.017 ± 0.12 | G -0.225 ± 0.054 | K -0.559 ± 0.3 | Q -0.102 ± 0.17 | M -0.647 ± 0.19 | W -0.276 ± 0.14 | P -0.685 ± 0.21 | A -0.412 ± 0.1
Q38: H -0.524 ± 0.31 | V -0.421 ± 0.09 | Y -0.207 ± 0.28 | C -0.32 ± 0.15 | E 0.192 ± 0.089 | R -0.103 ± 0.066 | L -0.531 ± 0.097 | T 0.079 ± 0.076 | P -0.028 ± 0.12 | D -0.075 ± 0.4 | S -0.082 ± 0.062 | M -0.498 ± 0.11 | A -0.143 ± 0.1 | K -0.18 ± 0.1 | N -0.435 ± 0.38 | F -0.356 ± 0.21 | G 0.003 ± 0.065
T30: F -0.514 ± 0.14 | D -0.062 ± 0.21 | H -0.232 ± 0.15 | E -0.177 ± 0.15 | W -0.421 ± 0.12 | Q 0.1 ± 0.15 | V -0.034 ± 0.23 | I -0.446 ± 0.14 | P -0.115 ± 0.078 | N -0.348 ± 0.14 | M -0.077 ± 0.094 | G -0.013 ± 0.051 | A 0.063 ± 0.086 | R -0.08 ± 0.078 | Y -0.459 ± 0.18 | S 0.01 ± 0.082 | K 0.336 ± 0.2 | L -0.325 ± 0.034
A27: G -0.262 ± 0.09 | D -0.613 ± 0.21 | M -0.427 ± 0.18 | K 0.021 ± 0.11 | Y -0.502 ± 0.17 | C 0.232 ± 0.24 | V -0.509 ± 0.079 | S -0.239 ± 0.083 | I -0.711 ± 0.22 | P -0.8 ± 0.2 | L -0.456 ± 0.098 | E -0.375 ± 0.11 | R 0.031 ± 0.056 | Q 0.228 ± 0.12 | H -0.022 ± 0.15 | W -0.101 ± 0.08
T39: P -0.579 ± 0.18 | E 0.11 ± 0.11 | K -0.006 ± 0.18 | H 0.074 ± 0.39 | R -0.058 ± 0.07 | W -0.846 ± 0.23 | L -0.195 ± 0.086 | M -0.502 ± 0.13 | F -0.509 ± 0.32 | S -0.099 ± 0.095 | G -0.215 ± 0.083 | Q -0.077 ± 0.13 | A -0.011 ± 0.085 | I -0.157 ± 0.14 | D 0.014 ± 0.2 | Y -0.769 ± 0.33
K16: R -0.088 ± 0.072 | S -0.33 ± 0.17 | L -0.064 ± 0.087 | W -0.696 ± 0.17 | Q -0.043 ± 0.16 | M -0.282 ± 0.15 | Y -0.088 ± 0.3 | T 0.021 ± 0.32
L28: G -0.943 ± 0.12 | A -0.639 ± 0.2 | V -0.703 ± 0.12 | W -0.981 ± 0.27 | Q -0.747 ± 0.24 | R -1.02 ± 0.19 | T -0.8 ± 0.34 | S -0.94 ± 0.21 | N -0.71 ± 0.23 | M -0.594 ± 0.17 | K -0.682 ± 0.3
G29: I -0.464 ± 0.2 | Q -0.554 ± 0.44 | L -0.929 ± 0.44 | V -0.468 ± 0.13 | F -0.388 ± 0.16 | C -0.594 ± 0.3 | A 0.056 ± 0.068 | S 0.092 ± 0.079 | R 0.02 ± 0.07 | W -0.478 ± 0.34 | H -0.154 ± 0.22 | D -0.736 ± 0.24 | K -0.01 ± 0.12 | T -0.004 ± 0.095 | E -0.02 ± 0.17 | M -0.427 ± 0.12 | P -0.658 ± 0.21 | N 0.041 ± 0.14 | Y -0.108 ± 0.098
T40: C -0.615 ± 0.16 | P -0.704 ± 0.46 | E -0.237 ± 0.11 | N -0.734 ± 0.32 | H -0.778 ± 0.4 | A -0.386 ± 0.1 | K -0.179 ± 0.097 | I -0.553 ± 0.22 | D -0.393 ± 0.36 | G -0.92 ± 0.15
S37: V -0.7 ± 0.19 | R -0.55 ± 0.12 | C -0.629 ± 0.26 | H -0.076 ± 0.11 | E -0.32 ± 0.13 | A -0.246 ± 0.13 | Q -0.386 ± 0.26 | K -0.532 ± 0.18 | L -0.629 ± 0.11 | N -0.338 ± 0.3 | F -0.841 ± 0.28 | G -0.44 ± 0.12 | D -0.157 ± 0.4 | T -0.337 ± 0.14 | Y -0.725 ± 0.3
V35: Q 0.033 ± 0.11 | P -0.105 ± 0.44 | A -0.537 ± 0.26 | I -0.609 ± 0.16 | E 0.172 ± 0.11 | Y -0.108 ± 0.09 | T 0.304 ± 0.11 | F -0.179 ± 0.069 | M -0.278 ± 0.28 | D 0.091 ± 0.086 | G -0.204 ± 0.13 | N -0.601 ± 0.41 | C -0.417 ± 0.17 | R -0.009 ± 0.071 | S -0.125 ± 0.085 | H -0.152 ± 0.2 | L -0.462 ± 0.13
L26: G -0.227 ± 0.065 | M 0.058 ± 0.086 | R 0.128 ± 0.058 | V -0.147 ± 0.077 | T -0.515 ± 0.17 | S 0.071 ± 0.13 | D -0.016 ± 0.15 | A 0.005 ± 0.079 | K -0.076 ± 0.1 | C -0.045 ± 0.21 | Y 0.035 ± 0.23 | E 0.133 ± 0.077 | W -0.24 ± 0.07 | Q 0.017 ± 0.14
T20: P -0.627 ± 0.29 | R -0.908 ± 0.17 | G -0.556 ± 0.076 | A -0.556 ± 0.16 | K -0.738 ± 0.28 | L -0.828 ± 0.26 | V -1.02 ± 0.35 | S -0.079 ± 0.076 | W -0.862 ± 0.26
L31: Q -0.116 ± 0.11 | V -0.195 ± 0.083 | D -0.017 ± 0.24 | I 0.076 ± 0.21 | M -0.156 ± 0.1 | P -0.551 ± 0.15 | R 0.031 ± 0.053 | Y -0.334 ± 0.17 | W -0.387 ± 0.09 | S -0.137 ± 0.07 | H -0.229 ± 0.14 | F -0.023 ± 0.24 | A -0.299 ± 0.099 | C -0.237 ± 0.27 | G -0.565 ± 0.087 | K -0.118 ± 0.19
